The target in this data set is Cre recombinase (UniProt P06956 P06956:1-343). Kind of data set: cell_activity; Lox66 partner site of Lox71 in same experiment; full-length ABCA4 mRNA relative to the pair without Cre. The settings on record: tags: NLS; expressed from the 5' ABCA4 vector after T2A self-cleavage; chain copies: 4. From the text:
We quantified the expression levels of full-length ABCA4 mRNA in cells transfected with various plasmids.

The values that follow come from patent US20230287458, “RECOMBINANT ADENO-ASSOCIATED VIRAL […] FOR […] GENE […]” (Abeona Therapeutics Inc., published 2023).

Chain of Cre recombinase (P06956 whole entry, one chain of several): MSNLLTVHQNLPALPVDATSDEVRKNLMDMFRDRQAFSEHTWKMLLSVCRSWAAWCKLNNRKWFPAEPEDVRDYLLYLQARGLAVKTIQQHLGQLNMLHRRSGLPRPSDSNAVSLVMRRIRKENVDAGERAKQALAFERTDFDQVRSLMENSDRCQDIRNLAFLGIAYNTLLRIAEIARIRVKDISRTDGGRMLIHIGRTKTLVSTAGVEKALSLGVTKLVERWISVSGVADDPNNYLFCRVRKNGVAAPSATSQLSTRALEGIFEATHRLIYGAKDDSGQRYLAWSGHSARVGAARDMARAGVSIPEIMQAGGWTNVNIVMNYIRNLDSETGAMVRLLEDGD

B1: Lox66 (dsDNA)
DNA 1: ATAACTTCGTATAATGTATGCTATACGAACGGTA
DNA 2: TACCGTTCGTATAGCATACATTATACGAAGTTAT
B1: the activity was around 55 fold.
